Assay: soluble on expression in E. coli; label from the status in PepcDB or PDB records
With “MAHHHHHHMLQQLNEEKNIRKALESRIREVNVSLRRYGVCIADAKEVTNESREFSEATDAFILAALEEKDTMDGDLCAKLQQQLRVKQRLTELRHQHQRKLDDMLRKYELIKTGRTTANNGAGADNNMLHPGLVDEAAAQQIKELLHRKDEEIERVIKEKEKTCDRIVKKLNKCELRIKELEATLEEERVQSTEERQELDRENRELQRYNQQLSVELETLRGQLSEMKEEMDFMERAKSAEIERWKEEAANGAGRLEEMRFKMAAYSELQKSYDRLQEQLQRTEVSLKEKSDNLENTRQMVKWSNSLLATEKQKVEQMEMMLKQQEVEMRRREEQLKSEMMNDINKQVAANNRRMQEQAAQYQELISQEQDKQKSIMKKVKSSRKETQKAAQRYDEMILENEALLSKLEELKVTSMRIFLEKQEAQRELEALRPTKHVANRRL” the “soluble on expression in E. coli” value was “not soluble”. For “MAHHHHHHMLQRLQLFRSTLVNFLEWRNFSDVVHGCYVRVLLEMRSTEENRRESPDNYYIALVKGAQRGPVYSGFSADAVTTEWHIVIELPPCFRSTQNGNVVQLNSISNSPFRQAEYQNWVDMTNETRELSFPSLPQLQFRLGMLEEHKQQALTPEPRRHRNGEDAEAAALREWALEEKRKRITEEIMVTHVKLRRIDQLKALSLEDLQEVEREILDLITGVRISINERSKCMLCHNRICTEICYPCKHQVLCKDCAKSIRGRCPAPKCKTPVQYTFEAFTS”, the “soluble on expression in E. coli” value was “not soluble”. With “MAHHHHHHMLQWEWPTSLCAERRELIRAAVERAIRNSMAEGSDGQIRGTVNVDELNLGSNPPEVTLSGIRMLSAERTVIMVKVRYTGDFFIRLSGLEVNLDMVGSGAEEADNNFALPFFCPFEMTLRDILIDGMVAIEILQELEENVQWGKCADVPVAPLATTVRSRKNTNGMRPPCRAGTPSTRHRSGYGVLLGGGGRGAMRLPGVLDSIDGSLSSVDMEGASEGHPRHSLRVRNVSPPFFDILSTKVLVKQRVVKMQLFGDPLKSFRVLSNFGSVQGADCKAEQTIRKLIKPAIEQLIEEGIIFNI” the “soluble on expression in E. coli” value was “not soluble”. For “MAHHHHHHMLRFTVPALVVFQNAYAPRVLNRMTPDRMELTMLILKERKKKVRYLGSNFQGFNDRVHLFNAQGGVRRGTRYIIETHHNRIQFKHRSRNNSMVDVRAVKMAGSQYDSIGNYTRMTWDNSLCTTNLLSDPNFKRHFKNMPKEETIGVLEEWGVRYILLDEIRKPSLMDCKYHKHHLYADKFWWSPSPETNHMRGDAEFKWKGNELIAYGDYNAHMQHPANFVTSSSSGSSGSGAATSKSAAAAAGSKKGASARPWFRRTVVVRKSQASDTKPLSTASKIAAAGTSK”, the “soluble on expression in E. coli” value was “soluble”. With “MAHHHHHHMLRHCTAHRRYRTAWRELLHPLPVRARKMEWLKRDAVEENEEILRRPYYTIKSYALPPAVGRQESIHNSNNIRGGMHSSHSLDLIMRQPRRVKTPEQLQALRDRLRFIGVTGPMPQATSVSTKSYADTYGSRLRPRYPESWDTVPPHQPSRELL” the “soluble on expression in E. coli” value was “soluble”. For “MAHHHHHHMLRITPSRYASKVTAGNAKNQAGSPRQKAKLFHVIPGTPVTPVEKLKEQRRRFGQDRYSRQPEYRPGRNVRMDPNTFTLYATTKGVMTIRTSRINPSYKWLDVEPDIQKVYRSRCMRAALQARGKASMMVAGNVHYRAELDHVTEPHWRERVMRVPKATERFQDPNYFTRGLVPSLRPLSRYSYE”, the “soluble on expression in E. coli” value was “soluble”. For “MAHHHHHHMLRRVSLSALVQRVAAGAVIATAGRTIVVFSQQHHILESNQRARNSPSNVWIEDWEADRLGMKPEPGALPTQLVLDKQLELFNFDQLLSPPEVMEAPKHSSYSSRKVYGERLQFELNDRAQRHSYQSKWWITRGQAYKENLQFKANARSSILLTKSQIKLFHSSQLSGGEALQQYPVSGGSRRVYSKKGEAFQLLQDHIKSNDFNSGLYFTRRQMEFFKLAPLPDQVPVVQEAATGDRHLIYNVDQLEDPHLALKTLQRAPVNVPTFLLSGEPIMSENTRKFPKTFRSNYWLTGRDAELYQWPIKESERRRGVPFSTGTSAPVQYELFNVEQLSNPDEAFARAGLLIQ”, the “soluble on expression in E. coli” value was “soluble”. With “MAHHHHHHMLSIGMTAMDTEGDVTQMELSALLVHIERCERLLRHPTLLSRLPDEGETIRSRHALYVAERSRREVGGDASSSRKENDAVEGSVRQVERQISQMTLSTEEKSEKTATMPMECHASLNTDGWTVGAGGKAVESYEDVARAVGEKHRHSRIPVEMIVRQTFGGSLCEAEIQRMLCDVPPNFFLTHDETISMQRKLLSEERLEALTRLRNQRHAEL” the “soluble on expression in E. coli” value was “not soluble”. For “MAHHHHHHMLSPTPLLQRYRLFHPCRENIPLHMNPAKSMFPLINSNNLLAKPRSNWQDFSGRKEFDEDHPLPVVASRLNERTTQHKWSHWDQYLNPQITQSVRDLTPTPEYVGMRSGHNMIKMGWMKIGGSWKYSRGYNDRRRVFARGQWQERKMTPRFMLAPRVSPGGPRNRYEGKLVFSRLKLSKLLWAIDTGRLNPNEVITVYHLHEAGVVAEGEIVWPGFVLISSGVSRVPYPIHIELQNASAESIRLIEEAGGSFTGVYMTHDGLYQELHPEEYPVFPEQEFPERKGLEGLATNPAKRGWLVRWYEDEGKYAHPEAGRRYSHYVRPPTERDFPATVGEYEMVKHHQKWHLNQPGTGTLLPWHSYNTADLLKRSAGRV”, the “soluble on expression in E. coli” value was “not soluble”. In the case of “MAHHHHHHMLTSTAYGMELQARAIAPFYHSSNNSSSTHRFVAGTACFAGGNVIRLLTFQEESQLLECTATWSHEEEIFGLWSSPSVAGPSLLAVGASSYCRIFRVSDDVSGELEPVVNFNAAAAQVLWDLEGLQNEVKLISEDSLRIYSLTEGKMGEEIGRFRVDGCAELRCAALDPHHSSVCLAAGEGIGIAVIDTRRKGPIVMPNTTTLHGLGMIQSIDFSNAREGLFMTAGTDGVIMWHDFRMDGEKSVVERRGYLDAHDHCVQRSLFNPFHDELLISCGSDHTLKLWDTSKKGADGECAVCVSKLSDFAESVVACCWSNSNPWVFAGLSYNGRVLVDSVPEECKMQFIGKEG”, the “soluble on expression in E. coli” value is reported as “not soluble”. With “MAHHHHHHMMDDQSSTSGGPQEGRDADHRQNHGNVLFVGNLPFQTPWQHVKDHFRKAGKVRYTDLIADRMGRPKGSALVTMVTAEGAQRAIRMYNETDFEGRRLIVRLFDDGPRPPIVQRGMMPQYDRQTQQQQPQQQSQRFRGYTGASSGGSNYNNTTNFGRRADYMGRGGYTMEEDLNATSLNDMGDSVPKPRSQQVNEFGRKLFVSNLPFDCTSSALRETFQQVGNVERAEVILGRNGKSRGMGIVVMRTEKETRLAIEEFDGIEMANRAMSVRLDNKTTA” the “soluble on expression in E. coli” value was “soluble”. In the case of “MAHHHHHHMNEKNKDINKYTSTNNMYKLSENNHKSLLENLKRRGIIDDDDVYNTMLQVDRGKYIKEIPYIDTPVYISHGVTISAPHMHALSLKRLINVLKPGSRAIDVGSGSGYLTVCMAIKMNVLENKNSYVIGLERVKDLVNFSLENIKRDKPELLKIDNFKIIHKNIYQVNEEEKKELGLFDAIHVGASASELPEILVDLLAENGKLIIPIEEDYTQVLYEITKKNGKIIKDRLFDVCFVSLKKN”, the “soluble on expression in E. coli” value is reported as “not soluble”. With “MAHHHHHHMNNSSAVATGDNPQLQKPMIYKNRARSIVHRSVRNGSENQLTEQANGTSIRDKIRRLFSSKHDQTIRDMQKTKLTKNKSIQEQEPSERNVDGFLSTDHQSVEWQPVYRETCKIKLPVEEGATKIAMPEEVLDDWVHSQHKISQQLGRRKGGEFVQDNQSLGDHDQGDDLLELGGDCLLGKNASRKSCNLKSTEDQYSKFKYYYNYYLVDEYLESLAASPNKELDATGLDEHGQLYDNVSLNARPIIVSKQRLESGVPYDPSKLLQ” the “soluble on expression in E. coli” value was “not soluble”. In the case of “MAHHHHHHMNQDLDKELREALQQDKYDLQLFLRFLKSYVVSGSQPEKQLLLGILLQALPRFHTSDFSACISLISSHVQDASYIEKDIILIYDLENYLSSGNFPQFWQVWRESEGTLPARPSFEPNMRAAILTVIGCTLGHIQTKDLSVYLGLKSGEKLEEVLREAARIAGDAVQLVGADEQAVVFQKSVFNAPESDSNQELKRFSDTVTIVSL”, the “soluble on expression in E. coli” value is reported as “soluble”. For “MAHHHHHHMNQVIRSRTDWKERVVLRLAWITASRWSEIAALTPNNLKLKTDGTLILYWPVAPKTARTDPHRASRFVRIRGQDAFDIIKLCRTLQHIEKLTNLTTARVERALAPWNATAHSIRRGALRHAAQIVEAYNLNPHVISQLAKHVDPFDLPQNTVRYLGNCTTMLTQVLSLVALM”, the “soluble on expression in E. coli” value was “not soluble”. With “MAHHHHHHMNRKRPRSPAGVQYWLMKSEPNKFSIDDLKKCTRSPWDGVRNYAARNNMKLMKVGDCVLFYHSNAKPSGVVGLASVVKTAYPDHTALDPKSEYYDARASKKNPWEMVDVQFEEKFASIVSLEELKKEKKLQAMQLFSQSRLSVQPVEKSEYDHVVSLGRKK” the “soluble on expression in E. coli” value was “soluble”. In the case of “MAHHHHHHMNTFNYIRSPTGVHEVDGPPNDCVSTVRFSPSGCPYLLLGAASWDKTCRVWQVIHQPNAINIRSQPMTFAVSDAPILDMSFSADGRVFWGGCSKTATMWNLTTNQKIIVGSHDLPVSCIAHVSSNTGTEMLVTGSWDGRLRFWDLRQPMPIKEEILGEPVFGLDAQRSFPMAACVTGRKVHIFNLQTMMKTNELKPPPLLKFNLGCVACSPQKDGVVVGSSEGRLSFIPLQAEVGCTFKAHVLVEDNVLYMHQTNFCVISPRVPHMISGGGDGRIGCWDYKKRSIVGYGESETRLENRNKSISAGDISADGSLLAFARSYDWAMGKTGCIPNEPHSIHIRSAEWKSALS”, the “soluble on expression in E. coli” value is reported as “not soluble”. In the case of “MAHHHHHHMNYNNNSFIPPTHVVKNIYTSAKTKFFLIKSSSDKNIAISLNYNIWATTPKNEYKFVSAFMEHDYVILVFSVNGSSKFCGYAIMQSKPGESKNNNVYFYYDNKVFRGKNFDIQWIRVVDVPFQEVAHLKNSLNEYKPIKVGRDGQEIEQMAGIQLCEAFESNFIKINNNITDTNTKPNIPPMYNMNTNNYVDSPNMNENIDMIKLYPYNNNFNINYNNFRNLYEESQYNLFNFYNPALHIFPIDLTNMNYDEYIYLYEKSQLVWQQKMLQMKANMNCIKQ”, the “soluble on expression in E. coli” value is reported as “not soluble”. With “MAHHHHHHMPAKSAKSKTQTLRDERKLGVEKLVELVFIGRPRTLSFSHRSLGSLRHPYSSLICETSAACASTQDKIMYLLEVFLEAKAEKKAWMRVERIFDSMLGDALMEKMKLGLLLSSELLQRFEVLWIRLGGVNGGFIFEDAYKQFHQHLYFTLFGIEQMTLLPATMQFILEDYQYDSHDKSGIDFGSFAHSMLELADNWAGSREVTDYVAFMDKIIECYPASAVKPCKTHAPDELTLSKDAFFRGGVVVPRVEGEQIVYHRITL” the “soluble on expression in E. coli” value was “not soluble”. For “MAHHHHHHMPARWHNKQKKGSNGHKRPSTGGNGSAARRDIGFIPPGASAVQNSSAHHADTFMYRFPQNFPVPRRLRHAPTSLVEAVNDFHFAMMNDRPRNEFYYELLKRHVTPETGVLEIGAGSGLLSLMAAQLGAKWVVAVEGSAEMAKLARANICANKMEHKVTVLHMLSTELTLRHLPDRPDVMVSEILGTLLLGESALDYIADVRERLLKPTTKIIPQHGTQYAVPIECDTLRDVCAVSGWKGLELSHMTALQDTVSIVFAKQYGFRMSSVPFRRLSEPIALFSVDFASAVRRDIPMNLKLDVKATSSGTAHAMLYYWKAFDGDLVMSTDPADTLNNFPRDMQWGQALQLLDAANGPFPTPVVFTEGEELKFQCHFSSDRVTVHIHLCPTAEAAASPAKTTPTDNDAIKTEKEACEKVNKGKK”, the “soluble on expression in E. coli” value was “soluble”. For “MAHHHHHHMPGASDRGTAYVSCRIHCLPACFSRAVVAVCKLTSPAPGIPPLVSLCRYGLPGYSAQEGEAFSAAASGLHPRHQLPFVLSRVAASKAIASLSPDKRAACPGEEDGPAVVFTDRREAAPTLHGCCLSIAHEDSAAASVAWSVPSPDSSSFKDYHAAPERLYMEAQLVCSHSTLPDATATSFAYAIDVVNVAEVHRVRSRFPHFGQRWMPQCTTTASADDVGRALTCVQKQHQECVAAVGAPGGSHGGEGVSACQAACRRDEWWKHLVTPYVTEADAYAAVVLAQHWGVRECAVKLVGIPGRSFAYECVRALPPRGGAVVTESTPFTASFLMSHTLYSAEVHGAEAATLAQQRLHPLLYLYTWTEWVPLNSTVDLPYVVVLACAPCRSDAR”, the “soluble on expression in E. coli” value was “not soluble”. For “MAHHHHHHMPHHAQDLRHDFTSGILNCHESCAVCLDACLCMYCTASAHHNFLMNDTEGLYLPVCWGLFCVDVGLSAVSSYLPSSLHFHTYFMRSAIRRRYNLHSA”, the “soluble on expression in E. coli” value was “soluble”.
